Test results from patent US20160145657A1, “Methods and Materials for Producing 7-Carbon Chemicals via a C9 Route” (INVISTA North America S.á.r.l., priority 2014, published 2016).

Columns and labels:
[1] = ω-transaminase activity, 7-aminoheptanol to 7-oxoheptanol, L-alanine formation by RP-HPLC; type: biochemical
Protocol: A nucleotide sequence encoding an N-terminal His-tag was added to the Chromobacterium violaceum, Pseudomonas syringae and Rhodobacter sphaeroides nucleic acids encoding the ω-transaminases of SEQ ID NOs: 7, 9 and 10, respectively (see FIG. 6) such that N-terminal HIS tagged ω-transaminases could be produced. The modified genes were cloned into a pET21a expression vector under the T7 promoter. Each expression vector was transformed into a BL21[DE3] E. coli host. Each resulting recombinant E. coli strain were cultivated at 37° C. in a 250 mL shake flask culture containing 50 mL LB media and antibiotic selection pressure, with shaking at 230 rpm. Each culture was induced overnight at 16° C. using 1 mM IPTG.
(§1) The pellet from each induced shake flask culture was harvested via centrifugation. Each pellet was resuspended and lysed via sonication. The cell debris was separated from the supernatant via centrifugation and the cell free extract was used immediately in enzyme activity assays.
Enzyme activity assays in the reverse direction (i.e., 7-aminoheptanol to 7-oxoheptanol) were performed in a buffer composed of a final concentration of 50 mM HEPES buffer (pH=7.5), 10 mM 7-aminoheptanol, 10 mM pyruvate, and 100 μM pyridoxyl 5′ phosphate. Each enzyme activity assay reaction was initiated by adding cell free extract of the ω-transaminase gene product or the empty vector control to the assay buffer containing the 7-aminoheptanol and then incubated at 25° C. for 4 h, with shaking at 250 rpm. The formation of L-alanine was quantified via RP-HPLC.

[2] = ω-transaminase activity, reverse direction (7-aminoheptanoate to pimelate semialdehyde), L-alanine formation by RP-HPLC; type: biochemical; details: cell free extract, 10 mM 7-aminoheptanoate, 10 mM pyruvate, pH 7.5, 25° C., 4 h; FIG. 13
Protocol: (§2) A nucleotide sequence encoding an N-terminal His-tag was added to the nucleic acid sequences from Chromobacterium violaceum, Pseudomonas syringae, Rhodobacter sphaeroides, and Vibrio fluvialis encoding the ω-transaminases of SEQ ID NOs: 7, 9, 10 and 12, respectively (see FIG. 6) such that N-terminal HIS tagged ω-transaminases could be produced. Each of the resulting modified genes was cloned into a pET21a expression vector under control of the T7 promoter and each expression vector was transformed into a BL21[DE3] E. coli host. The resulting recombinant E. coli strains were cultivated at 37° C. in a 250 mL shake flask culture containing 50 mL LB media and antibiotic selection pressure, with shaking at 230 rpm. Each culture was induced overnight at 16° C. using 1 mM IPTG.
as §1
Enzyme activity assays in the reverse direction (i.e., 7-aminoheptanoate to pimelate semialdehyde) were performed in a buffer composed of a final concentration of 50 mM HEPES buffer (pH=7.5), 10 mM 7-aminoheptanoate, 10 mM pyruvate and 100 μM pyridoxyl 5′ phosphate. Each enzyme activity assay reaction was initiated by adding cell free extract of the ω-transaminase gene product or the empty vector control to the assay buffer containing the 7-aminoheptanoate and incubated at 25° C. for 4 h, with shaking at 250 rpm. The formation of L-alanine from pyruvate was quantified via RP-HPLC.

[3] = ω-transaminase activity, forward direction (pimelate semialdehyde to 7-aminoheptanoate), pyruvate formation by RP-HPLC; type: biochemical; details: conclusion from reverse and forward assays of Example 1
Protocol: as §2, §1
Enzyme activity in the forward direction (i.e., pimelate semialdehyde to 7-aminoheptanoate) was confirmed for the transaminases of SEQ ID NO 9, SEQ ID NO 10 and SEQ ID NO 12. Enzyme activity assays were performed in a buffer composed of a final concentration of 50 mM HEPES buffer (pH=7.5), 10 mM pimelate semialdehyde, 10 mM L-alanine and 100 μM pyridoxyl 5′ phosphate. Each enzyme activity assay reaction was initiated by adding a cell free extract of the ω-transaminase gene product or the empty vector control to the assay buffer containing the pimelate semialdehyde and incubated at 25° C. for 4 h, with shaking at 250 rpm. The formation of pyruvate was quantified via RP-HPLC.

[4] = literature reports; cited from earlier work

B1: SEQ ID NO 7: Chromobacterium violaceum ω-transaminase, Genbank Accession No. AAQ59697.1 (protein)
chain: MQKQRTTSQWRELDAAHHLHPFTDTASLNQAGARVMTRGEGVYLWDSEGNKIIDGMAGLWCVNVGYGRKDFAEAARRQMEELPFYNTFFKTTHPAVVELSSLLAEVTPAGFDRVFYTNSGSESVDTMIRMVRRYWDVQGKPEKKTLIGRWNGYHGSTIGGASLGGMKYMHEQGDLPIPGMAHIEQPWWYKHGKDMTPDEFGVVAARWLEEKILEIGADKVAAFVGEPIQGAGGVIVPPATYWPEIERICRKYDVLLVADEVICGFGRTGEWFGHQHFGFQPDLFTAAKGLSSGYLPIGAVFVGKRVAEGLIAGGDFNHGFTYSGHPVCAAVAHANVAALRDEGIVQRVKDDIGPYMQKRWRETFSRFEHVDDVRGVGMVQAFTLVKNKAKRELFPDFGEIGTLCRDIFFRNNLIMRACGDHIVSAPPLVMTRAEVDEMLAVAERCLEEFEQTLKARGLA
- acceptance of 7-aminoheptanol as substrate (conversion of pyruvate to L-alanine) against the empty vector control ([1]; cell free extract, 10 mM 7-aminoheptanol, 10 mM pyruvate, pH 7.5, 25° C., 4 h, FIG. 17): accepted 7-aminoheptanol as substrate
- acceptance of 7-oxoheptanol as substrate forming 7-aminoheptanol, concluded from reversibility ([1]; inferred from reverse direction assay and Example 1): accept 7-oxoheptanol as substrate and form 7-aminoheptanol
- acceptance of 7-aminoheptanoate as substrate (conversion of pyruvate to L-alanine) against the empty vector control [2]: accepted 7-aminoheptanote as substrate
- reversibility of ω-transaminase activity: pimelate semialdehyde accepted, 7-aminoheptanoate synthesized [3]: accepted pimelate semialdehyde as substrate and synthesized 7-aminoheptanoate as a reaction product
- activity with 7-aminoheptanoate / 7-aminoheptanoic acid (to pimelate semialdehyde) [4]: demonstrated analogous activity accepting 7-aminoheptanoic acid as amino donor
